The nature of this data set: label from the status in PepcDB records.

Regarding “MNLNAKKTTTAVQSASENPKLRVMPKQLFSRTPVLAGGNAAAKREEIREYFHSTLDRYEQLFETLRGDAAYFKKPISLRHPLIFYLGHTATFFTNKLLLAGLITDRINPKMESMFAVGVDEMSWDDLDTTHYDWPSVEEVRAYRRRMRETVDRLIRETPLTLPIEWDSPWWTIMMGIEHERIHLETSSVLIRQHALEHVAPHPAWEPCRKSGPAPDNQLVKVPEGTVQLGKKKDDPFYGWDNEYGTHIADVAAFEAGKYLVSNQEFLEFVQADGYETESYWEEEGRAWLKHAGAKHPTFWIRRGGEWELRLMTKEISMPWDWPVEVNYHEAKAFCNWKAAVSGQPYRLPTEDEWYRLYEVAGLSEVPAAAPAMANIHLDHGASSHPVNEFAQGDFYDVVGNVWQWTETPIYPFDGFDVHPHYDDFTTPTFDGRHNLIKGGSWISCGNESLKNSRYAFRRHFFQHAGFRYVVGTAPAIQHGSHYETDKLLSEYAEFHYGDTYFDVPNFPKALAELAIAAMGDKPAHKALDLGCASGRAAFELARHFDEVTGVDFSARFIGQGVQLASQGVLRYTLADEGDLVLYRERTLAGLGLDGVRHKVAFYQGDACNLKPIYTGYDLILAANLIDRLYDPAKLLTSIHTRINSGGILLIASPYTWLEEHTKREAWIGGFKRDGESFGTLDGLKEILGAHFRLIQGPTEVPFVIRETRRKFQHTLSEVTIWEKTA”, the protein production result is recorded as “failed”.
For “MNLPNKLTVLRIFMIPIFIIIVSVPMDWGTISFGDTTLAVTQLVGAIIFAVASFTDWLDGKIARAQGLVTNFGKFADPLADKMLVMTAFIVLVGQGKVPAWIVAIIVCRELAVTGLRLLLVEHGEVMAAAWPGKVKTATQMVAIILLFINNIPFSALHLPLDQIMLYACLIFTIYSGVDYFAKNKDVFKGSM”, the protein production entry is given as “failed”.
The entry for “MNLPSRQWSSEVRQLVFIGFSAITAVVLSYSYVATVGLSEMLFAIVGAGLLLALVVILPVILLD” is “failed”; for “MNLRPYQHTIVDFILTHPRCNLFVPMGLGKTVATLTALDVLLVVEDIAPILVIAPLRVAATTWPDEVAKFPHLRHLRVSVVVGSAAARRHALEQEADIYCINYDTLKWLVEFYKDRWPFRMVVADECSKLKGFRLRQGTRRARALATHVHTKVERYVGLTGTPAPNGLQDLWALMWMVDRGARLGTHFKAFIDRWFRAMQIGSDPHAVRFVPTPHASQEIQDKIRDICLSLDPHAYFDLCQPIVNTIRVALPAHAQRLYKAMEQDMFIALECGAEVEAFNAASKTIKCLQLANGALYTDDTRQAWEVVHDAKLEALHDIIEEAAGMPVLVAYHFKSDVARLQRAFPKGRALDKHPDTIRDWNAGNIPVLFAHPASAGHGLNLQDGGNILAFFGHWWDLEQYQQIIERIGPTRQAQAGHTRPVFIHHIVAAGTVDELVMARRESKREVQDLLLEAVKRRETGKPLTSQGAIAL” it is “failed”; for “MNLSQQNQHSNPITEAAKATFPYSVPMIAGFLFLGIAYGIYMKALGFGFLYPTLMALLIYAGSVEFIAAGALIAPFSPISVLLITLMISARQIFYGISMLEKYGIHIGKKRWYLITTLVDESFSLNYMAKIPPHLDKGWYMFFVSLYLHIYWVLGAAMGNLFGTVLPFNLKGVEFSMTALFLVIFAENWLKGKSHESSLLGLGIALVFLLIIGKEYFLIPTLIGIWLILTMRITKLETKLESLK” it is “failed”.
“MNLSSASSTEEKAVTTVLWGCELSQERRTWTFRPQLEGKQSCRLLLHTICLGEKAKEEMHRVEILPPANQEDKKMQPVTIASLQASVLPMVSMVGVQLSPPVTFQLRAGSGPVFLSGQERYEASDLTWEEEEEEEGEEEEEEEEDDEDEDADISLEEQSPVKQVKRLVPQKQASVAKKKKLEKEEEEIRASVRDKSPVKKAKATARAKKPGFKK”: the protein production result was “failed”.
Turning to “MNLVGIVGTNSERSTNRKLLRFMAEHFAPQAAIEVLEIKDLPAFDEPENKTAPAAVTAFSKKIAAADGVIIATPEYNHTIPAPLGSALEWIAYTSRVLVNKPVMIVGCSLGALGTSRAQAHLRQILDAPELKARVMPGTEFFLGHSEHVLDDDFNLNNPEKVAELEEHFTEFQDFVIVTNQIVKQADTDRKLEHHHHHH”, the protein production result was “not failed”.
For “MNLVKFTLDKANSQAYSSEQTTTEVSNMTIENGVRVLAGSMVLLSVILTWFVHPNFLWLTVFVGVNLIQSAFTGFCPAAFFLKKLGLR” the value was “failed”; for “MNLYADYEYYTSTYKGNLAKEEFEKSIMKASAYVRRITFGRADDNMEMEEVKLAACSVCDLIANDEKVRSKHSGRAVTSENTDGYSVSYESGGNGETADDLLKRNIFDTLLLYLEPTRLLYMGVELLEHHHHHH”, “not failed”.
For “MNLYSLLLSLITGCFLLAQGGTSFSSPVETEKSAVTAQSILEKADEIRFPQDSFQVNVAIRTAAPDHAEDLYRYQVLSKGNENSIVMITEPASERGQAILMKGRDLWVFMPSVSQPIRLSLSQRLTGQVANGDIARANFTGDYHPQLLRNESIDDEDYYVLELTGIDRSVTYQKVLLWVNQSNFRPYKAEFYSVSGRLLKTSRYENFDNILGEMRPTRIIMEDALKSGEVSVLDYSDMKLRDLPDKIFTKDYLKRLE”, the protein production result is given as “failed”.
On to “MNMKATALTATTVAIASLLPSMGETNVQTANAEQLSNVKTGYVKVDQVALHTKDNANSSSIDTIRFNTKVNILETTNGWYKVSVNNKVGYVQKDSILLKNKLQSNNQYIVNANALNVRSEPNLESSILDVLPNGKFVTIQEEQGEWYKISHNGKAGYVQKAFVSNGSQPLVKGITVQNNTKYTVATPKLNVRSNASTSSALLGSLQNGTQLQVVETVGTWYKIRFGTGYGYVAKHYVVQNQTQSQTQTAQPTSIPAVFKFPTQGRISSTFDMRWEQMHYGIDIAAPGNVSIQAAAAGKVVKSYYSASYGNVVFIAHQINGKLYTTVYAHMKDRTVQAGDQVQAGQLVGHMGNTGHSYGQHLHFELHNGEWNFEKTNAVNPLPYLVRLEHHHHHH”, for which the protein production result is “failed”.
For “MNMQKLRIELGEETNDELYDLLLLADPSKDIVDEYLERGECYTAWAGDELAGVYVLLKTRPQTVEIVNIAVKESLQKKGFGKQLVLDAIEKAKKLGADTIEIGTGNSSIHQLSLYQKCGFRIQAIDHDFFLRHYDEDIFENGIQCRDMVRLYLDLLEHHHHHH” the value was “not failed”; for “MNMVEPLAVAILIAYLVALLLIGLLSSKKSSVGMTDFFIAGRNLNKWTVALSAVSSGRSAWLVLGVTGTAYATGLDAVWAVAGYITVEVFLFFYVARRFRAYSEQTGSITIPDILETRFNDKTHILRGGSAFIIMFFMIAYVASQLVAGGGAFATSMGVSSSTGMWVTAVILLAYTMLGGFHAVSKTDVVQAGFMFVSLVILPVVAIIGLGGFDPLLQVMHTEGGGFTSPFAFGFGAVIGLLGIGFGSPGNPHILVRYMSLKNVKEMRQAALISSVWNVLMGWGAVMIGLAGRAYFPDVSLLPNGDQEQVFLMLGSEILHPLFFGFLLVAVLAAIMSSADSQLLVGSSAFVRDIYQKMFRRNRKLSQKKLVRLSRLTTVVFMGLSLILAFTAQEFVFWMVLFAFGGLGACFGPALLLSFYWKGVTRQGVLWGMIAGLLTVILVKQQPQWTYAFLPDVKELLNTYFFGITYEAVPGFIVATTITVVISLFTKRPKHAKQIIERLNESA”, “failed”.
The entry for “MNNAMQLLQPYPFKKLRALLGSVTPNPEKRPVALSIGEPKHRSPDFVAKALADNLDQMAVYPTTLGIPALREAIAGWCNRRFGVPQGWIDPARNVLPVNGTREALFAFTQTVVNRSDDGLVVSPNPFYQIYEGAAFLAGAQPHYLPCLSDNGFNPDFDAVDADIWKRCQILFLCSPGNPTGALIPVETLKKLIALADEHDFVIAADECYSELYFDEQTPPPGLLSACVELGRQDFKRCVVFHSLSKRSNLPGLRSGFVAGDAEILKAFLLYRTYHGCAMPVQTQLASIAAWNDEEHVRANRDLYREKFDAVLDILAPVLDVQRPDGGFYLWPNVGTDDAAFCRDLFVDQHVTAVPGSYLSREVDGVNPGAGRVRLALVAPLAECIEAAERIRAFVLK” is “not failed”.
For “MNNENMVRVFYVLLMGLGFPIMRFMSIHFETLNNNSVRFLSGGSLFVIICLIKFRSELKKIIGEPKIILYLFIYLFILGIFMTGNMFFFINGLKYTSALAGSIFGILAMPLAIIIAGIFFKDERDRIRQKEFYIGELLAIIGSLIFVINSSNNDGNTDFFLGAIFLFTAIFIQSVQNLIVKKVAKKINAVVISASTATISGVLFLCLAFNTKQIYLLQDVGIGMLIGLVCAGFYGMLTGMLMAFYIVQKQGITVFNILQLLIPLSTAIIGYLTLDERINIYQGISGIIVIIGCVLALKRKNKEC” the value was “failed”; for “MNNFTYEKLHNNLQYLKLNTIEELLDNCLEIAARDSKTTMEVLDYLFEQEKKHREAAAIERRMKSAGFPVKKMLEEFDFEFQSSINKKVIEDLATLRFVHNAENIVLLGPPGVGKSHLAIALGIEAVKAGISVHFTNTGNLIERLKIANREGILEKKIRDLMKFKVLIIDEIGYLPFDDEGAHCLFQLISRRYEKSSTILTSNKSYGEWGEIFKDHVIAAALLDRILHHCTTINIKGESYRLKERKKQGIKTGLIRHNSTEILENLEHHHHHH”, “not failed”; for “MNNIRLLNQNDLDSYIELMKFGHHNYEWDRYYLENVSIDRLKTILSNHTDYWNIFGAFEDDELVATCTLKQMNYVGKCHKAILENNFVKNNDEIVNRELINHIIQYAKEQNIETLMIAIASNNISAKVFFSSIGFENLAFEKNASKIGNEYFDENWLIYSTTE”, “failed”.
Consider “MNNLINNPLFGILLTLFAFEIGMTIYKKTKIPLLNPLLIAIALVIAVLVSCHISFETYNIGGSFINAFLGPATVILAVPLYKQLQLLKNHFVPIMTGIIVGSFASMCCVIIMGYFLGVNHELIASLVPKSVTTPIGVEVASGLGGIPSITVIAVIITGITGAIIAPMVCKLLKIDHEVAMGVSMGTAAHAVGTTKALEIGETHGAMSSLSIGVAGLITVFLAPPIYMLSALILKFV”, for which the protein production entry is given as “failed”.
In the case of “MNNLPLLNDLRVFMLVARRAGFAAAAEELGVSPAFVSKRVSLLEQTLNVMLLHRTTRRVTITEEGERIYEWAQRILQDVDEMMDELSDVRQVPQGTLRIISSFGFGRRVVAPALSALALQYPQLELRFDVQDRLVDLVNEGVDLDIRVGDDIAPNLIARQLAANHRVLCASPQFLARHAPPKQLSDLAALPCLVIKERDHPFGVWQLHSKEGQHAIKVTGPLSSNHGEIVHQWCLDGQGIALRSWWDVRENIASGHLVQVLPDYWQPANVWAVYVSRLATSAKIRTTVEFLRHYFQLHYPQHEPTASAVGRGD”, the protein production entry is recorded as “failed”.
The entry for “MNNPKPCEWKSNELSRGYIADYKAFNFVDGEGVRCSLYVSGCPFHCEGCYNKAAQSFKYGKPYTKELEDDILKDIGHESVQGLTLLGGEPFLNTATCLSIVKRIRATYGETKDIWSWTGYTWDEMMQETADKLELLSLIDVLVDGRFEQKLFDPNLAFRGSSNQRIIDVQKSLAAGEVVLYELLEHHHHHH” is “failed”.
